Assays:
[1] = target: HSV-1 glycoprotein D, C-terminal truncated mutant gD285 (aa 1-285) (herpes simplex virus type 1 (HSV-1)); assay: AUC; sedimentation velocity, gD alone at 5, 10 and 20 uM in PBS pH 7.8, 20 C, 40k rpm, absorbance optics, c(s) distributions in SedFit; monomer and dimer species, said not to be in a monomer-dimer equilibrium
[2] = target: HSV-1 glycoprotein D, C-terminal truncated mutant gD306 (aa 1-306) (herpes simplex virus type 1 (HSV-1)); assay: as above
HVEM (Homo sapiens) = HVEM (Homo sapiens) (UniProt Q92956); settings: cited from earlier work
Chain of UniProt Q92956 (Q92956 39-283): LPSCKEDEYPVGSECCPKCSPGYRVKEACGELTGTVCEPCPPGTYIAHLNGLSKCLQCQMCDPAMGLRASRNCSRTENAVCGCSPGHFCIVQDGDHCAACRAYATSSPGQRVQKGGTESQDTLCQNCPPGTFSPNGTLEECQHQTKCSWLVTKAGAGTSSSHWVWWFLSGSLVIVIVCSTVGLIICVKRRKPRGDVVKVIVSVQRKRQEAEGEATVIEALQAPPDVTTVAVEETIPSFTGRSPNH

## HSV-1 glycoprotein D, C-terminal truncated mutant gD285 (aa 1-285) (domain or fragment)
[1]
  stoichiometry N: 2

## HSV-1 glycoprotein D, C-terminal truncated mutant gD306 (aa 1-306) (domain or fragment)
[2]
  stoichiometry N: 2

## glycoprotein D (gD285) gD285 (from UniProt Q69091)
HVEM (Homo sapiens)
  Kd: 37 nM
